From patent US20260266833A1 (AXOIYA, published 2026)
Positions count from the first letter of the chain named. Numbers in names are those of the source. Non-standard residues stand in square brackets, D forms with d. No end group written: not given here. *: point of attachment. Biotin = O=C1N[C@H]2[C@H](CS[C@H]2CCCCC(=O)*)N1; Arg(Me) = CNC(=N)NCCC[C@H](N)C(=O)O; Ahx = NCCCCCC(=O)O

T1: H3K14Ac
T1 construct: also called H3K14Ac peptide
T1 peptide: {Biotin-Ahx}-TARKSTGGK(Ac)APRKQLAT

T2: H3K14
T2 construct: also called H3K14 peptide (non-modified)
T2 peptide: {Biotin-Ahx}-TARKSTGGKAPRKQLAT

T3: H3K27me3 peptide (Kme3 (trimethyl-lysine) at the 10th residue (KQLATKAARKme3SAPATGGVK); N-terminus biotin + aminohexanoic acid linker, or FITC at the N-terminus for fluorescence polarization)
T3 construct: Synthetic peptide (GenScript); One entry is used for the biotinylated and the FITC-labelled form
T3 peptide: KQLATKAARKSAPATGGVK

T4: H3R17
T4 construct: also called H3R17 peptide (non-modified)
T4 peptide: {Biotin-Ahx}-KSTGGKAPRKQLATKAA

T5: H3R17me1
T5 construct: also called H3R17me1 peptide
T5 peptide: {Biotin-Ahx}-KSTGGKAP[Arg(Me)]KQLATKAA

B1: phage-displayed Cbx7.V4 (designed binder)
chain: SAICDNVFAVESIRKKRVRKGKVEYLVKWEGWPQEYSTWEPEEHILDPRLVMAYEEKEERDRASGYRKRGPK
B2: phage-displayed Cbx7.V3 (designed binder)
chain: B1 chain with D5E, N6Y, V7I, A9S, Q34P, S37M
B3: phage-displayed Cbx7.V2 (designed binder)
chain: B1 chain with F8Y, A9P, E30K, Q34L
B4: phage-displayed Cbx7.V6 (designed binder)
chain: B1 chain with C4F, D5E, N6D, A9P, E30K, Q34S
B5: phage-displayed Cbx7.V5 (designed binder)
chain: B1 chain with C4G, D5H, N6D, A9P, E30R, G31D, Q34E, E35Q
B6: phage-displayed Cbx7.V1 (designed binder)
chain: B1 chain with C4G, N6D, V7I, Q34L
B7: Cbx7 Q9D chromodomain (tags removed) (designed binder)
chain: B1 chain with C4G, D5E, N6D, E30K, Q34P, E35K
notes: FP: His6 and Flag tags removed with TEV protease
B8: Cbx7 K33E chromodomain (tags removed) (designed binder)
chain: B1 chain with C4G, D5E, N6Q, Q34P, E35K
notes: as for B7
B9: Cbx7.VD chromodomain (tags removed) (designed binder)
chain: B1 chain with C4G, D5E, N6D, Q34P, E35K
notes: also called Cbx7 Q9D/K33E
B10: Cbx2.VD chromodomain (tags removed) (designed binder)
chain: GEDVFAAECILSKRLRKGKLEYLVKWEGWSSKHNSWEPEENILDPRLLLAFQKKEHEKEVQNR
B11: Cbx7.VD chromodomain-luciferase fusion (designed binder)
chain: MSYYHHHHHHGSDYKDDDDKSSGENLYFQGSGGSSAIGEDVFAVESIRKKRVRKGKVEYLVKWEGWPPKYSTWEPEEHILDPRLVMAYEEKEERDRASGYRKRGPK
notes: not shown: engineered YY5 firefly luciferase from Photinus pyralis fused to the C-terminus
B12: Cbx8.VD chromodomain-luciferase fusion (designed binder)
chain: MSYYHHHHHHGSDYKDDDDKSSGENLYFQGSGGSGEDVFAAEALLKRRIRKGRMEYLVKWEGWSQKYSTWEPEENILDARLLAAFEEREREMELYGP
notes: as for B11
B13: Cbx2.VD chromodomain-luciferase fusion (designed binder)
chain: MSYYHHHHHHGSDYKDDDDKSSGENLYFQGSGGSGEDVFAAECILSKRLRKGKLEYLVKWEGWSSKHNSWEPEENILDPRLLLAFQKKEHEKEVQNR
notes: as for B11
B14: Cbx7.V1 back-mutant I10V, His6- and Flag-tagged (designed binder, not shown: small tags and cut ends)
chain: B1 chain with C4G, N6D, Q34L
B15: Cbx7.V1 chromodomain, His6- and Flag-tagged (designed binder, not shown: small tags and cut ends)
chain: B1 chain with C4G, N6D, V7I, Q34L
notes: BLI form; tags are said to be removed only for FP and ITC
B16: Cbx7.V1 back-mutant L37P, His6- and Flag-tagged (designed binder, not shown: small tags and cut ends)
chain: B1 chain with C4G, N6D, V7I, Q34P
B17: Cbx7.V1 back-mutant D8E, His6- and Flag-tagged (designed binder, not shown: small tags and cut ends)
chain: B1 chain with C4G, D5E, N6D, V7I, Q34L
B18: Cbx7.V1 back-mutant E38K, His6- and Flag-tagged (designed binder, not shown: small tags and cut ends)
chain: B1 chain with C4G, N6D, V7I, Q34L, E35K
B19: Cbx7.V1 back-mutant D9Q, His6- and Flag-tagged (designed binder, not shown: small tags and cut ends)
chain: B1 chain with C4G, N6Q, V7I, Q34L
B20: Cbx7.wt chromodomain-luciferase fusion (other)
chain: B11 chain with D40Q, E64K
notes: as for B11

Biological target: T1, H3K14Ac
Assay: phage ELISA, specificity heatmap
Protocol: (§1) Phage ELISA experiments were performed by coating 384-well MAXISORP plates (Thermo Fisher Scientific) with 25 μl/well of 2 μg/ml streptavidin (New England Biolabs, N7021S) in PBS pH 7.4, and incubating them at 4° C. for 16 h. Each well was blocked with 60 μl/well of PBS pH 7.4 containing 0.5% BSA (PB buffer) and incubated at 25° C. for 1 h. Plates were washed four times with 90 μl/well of PBS pH 7.4 containing 0.05% Tween-20 (PT buffer) and incubated with 25 μl/well of biotinylated histone peptides at 2 μg/ml in PBS pH 7.4 for 30 min at 25° C. Plates were incubated with phage stocks previously diluted three-fold in PB buffer containing 0.05% Tween-20 (PBT buffer) at 25° C. for 1 h with gentle agitation. Plates were washed and bound phage was detected using 25 μl/well of an anti-M13-HRP-conjugated antibody (1:3,000 dilution in PT buffer; SinoBiological, 11973-MM05T-H). Following incubation at 25° C. for 30 min with gentle shaking, plates were washed, and binding was assessed by adding 25 μl/well of the 3,3′,5,5′-tetramethylbenzidine (TMB) (Thermo Fisher) chromogenic substrate. Plates were incubated with TMB at 25° C. with gentle shaking for 5-10 min, and the colorimetric reaction was stopped by addition of 25 μl/well of a IM H3PO4 solution. Plates were read spectrophotometrically at 450 nm using a PowerWave XS microplate reader (BioTek).

Binder	binding result
B1	no binding
B2	no binding
B3	no binding
B4	no binding
B5	no binding
B6	no binding

These binders were tested against T6, H4K20me3 (Kme3 at peptide residue 8 (histone H4 K20); N-terminal biotin and aminohexanoic acid linker) (assay: phage ELISA, specificity heatmap).
T6 construct: also called H4K20Me3 peptide
Protocol: as §1

Binder	binding result
B1	no binding
B2	no binding
B3	no binding
B4	no binding
B5	no binding
B6	no binding

Biological target: T2, H3K14
Assay: phage ELISA, specificity heatmap
Protocol: as §1

Binder	binding result
B1	no binding
B2	no binding
B3	no binding
B4	no binding
B5	no binding
B6	no binding

These binders were tested against T7, H4K20 peptide (N-terminus biotin + aminohexanoic acid linker) (assay: phage ELISA, specificity heatmap).
Protocol: as §1

Binder	binding result
B1	no binding
B2	no binding
B3	no binding
B4	no binding
B5	no binding
B6	no binding

Biological target: T3, H3K27me3 peptide
Assay: fluorescence polarization, FITC-peptide 0.5 nM
Protocol: (§4) Fluorescence polarization (FP) assays were performed in a 20 μl volume at a constant histone peptide concentration of 0.5 nM. Binding measurements were performed in FP buffer (25 mM HEPES pH 7.5, 150 mM NaCl, 1 mM DTT, 0.01% TritonX-100) by mixing in a 384-well black plate (Corning) 0.5 nM FITC-labeled histone peptides with serial dilutions of wild-type Cbx chromodomains ranging from 200-0.2 μM. For affinity determination of Cbx7.V1 and all Cbx. VDs, chromodomains were serially diluted from 50 μM to 50 nM. Samples were incubated for 30 min at 25° C. prior to data acquisition. […] Dissociation constants were determined using Prismv.9.3 (GraphPad Software Inc) with a one-site total binding model.

Binder	Kd [nM]
B7	100000
B8	20000
B9	5000

Biological target: T3, H3K27me3 peptide
Assay: fluorescence polarization, FITC-peptide 0.5 nM
Remark: another data set of the same source
Protocol: as §4
FP assays was used to measure the affinities of each wild-type Cbx chromodomain (Cbx.wt) and its Cbx. VD version for the H3K9me3 and H3K27me3 peptides (Table 13).

Binder	Kd [nM]
B9	5000
B10	3000

Biological target: T4, H3R17
Assay: luciferase-fusion assay on immobilized peptide
Protocol: (§2) For luciferase-based assays, 384-well white plates (PerkinElmer) were coated for 16 h at 4° C. with 4 μg/ml streptavidin (New England Biolabs, N7021S) in TBS pH 8.5 (50 mM Tris-HCl pH 8.5, 150 mM NaCl). Each well was blocked with 60 μl/well of TBS pH 8.5 containing 0.5% BSA (TB buffer) and incubated at 25° C. for 1 h. Plates were washed four times with 90 μl/well of PBS pH 7.4, 0.05% Tween-20 (PT buffer) and incubated with 25 μl/well of biotinylated histone peptides at 5 μg/ml in TB buffer pH 8.5 for 30 min at 25° C. Plates were washed and incubated with Cbx chromodomain-luciferase fusions diluted to 0.1 nM for Cbx. VD or 100 nM for Cbx.wt in TB buffer, 0.05% Tween-20, 1 mM DTT, 5% glycerol (TBT buffer). Plates were incubated for 1 h at 25° C. with gentle shaking, washed six times and luminescence intensity was measured with a Biotek Synergy 5 plate reader (Biotek) using the ONE-Glo™ EX luciferase assay system reagent (Promega). Following background subtraction of the luminescence signal derived from wells coated with streptavidin, the luminescence intensity was normalized to wells with immobilized H3K9me3 peptide.
(§3) To enhance detection sensitivity, each chromodomain was expressed as a fusion to the N-terminus of an engineered firefly luciferase and binding was measured by luminescence intensity.

Binder	binding result
B11	no binding (tested: 0.1 nM)
B12	no binding (tested: 0.1 nM)
B13	no binding (tested: 0.1 nM)

Biological target: T5, H3R17me1
Assay: luciferase-fusion assay on immobilized peptide
Protocol: as §2, §3

Binder	binding result
B11	no binding (tested: 0.1 nM)
B13	no binding (tested: 0.1 nM)

The binders below were run against T6, H4K20me3 (assay: luciferase-fusion assay on immobilized peptide).
Protocol: as §2, §3

Binder	binding result
B12	no binding (tested: 0.1 nM)
B13	no binding (tested: 0.1 nM)

Biological target: T2, H3K14
Assay: luciferase-fusion assay on immobilized peptide
Protocol: as §2, §3

Binder	binding result
B11	no binding (tested: 0.1 nM)
B12	no binding (tested: 0.1 nM)
B13	no binding (tested: 0.1 nM)

Each binder was assayed against T7, H4K20 peptide (assay: luciferase-fusion assay on immobilized peptide).
Protocol: as §2, §3

Binder	binding result
B12	no binding (tested: 0.1 nM)
B13	no binding (tested: 0.1 nM)

Biological target: T3, H3K27me3 peptide
Assay: BLI, biotinylated peptide on streptavidin tips, steady state
Protocol: BLI experiments were performed on an Octet HTX system (ForteBio) using biosensor tips coated with streptavidin to immobilize biotinylated H3K9me3 and H3K27me3 peptides. Binding analysis was performed by analyzing the association of biosensor-immobilized methylated peptides to Cbx7.V1 variants in solution at 5 or 1 μM. Binding assays were performed at 25° C. in BLI reaction buffer (25 mM HEPES pH 7.0, 150 mM NaCl, 1 mg/ml BSA, 0.01% Tween-20). Dissociation constants (KD) were obtained by fitting the response wavelength shifts in the steady-state regions with the Langmuir binding model.

Binder	Kd [nM]
B14	2000
B15	2000
B16	2500
B17	2000
B18	1500
B19	2000

The binders below were run against T6, H4K20me3 (assay: luciferase-fusion assay on immobilized peptide, fusion at 0.1 nM, normalized to H3K9me3).
Protocol: as §2, §3

Binder	binding result
B11	binds

What follows are binders tested against T7, H4K20 peptide in the same assay as above.
Protocol: as §2, §3

Binder	binding result
B11	binds

These binders were tested against T6, H4K20me3 (assay: luciferase-fusion assay on immobilized peptide, fusion at 100 nM, normalized to H3K9me3).
Protocol: as §2, §3

Binder	binding result
B20	binds

The binders below were run against T7, H4K20 peptide in the same assay as above.
Protocol: as §2, §3

Binder	binding result
B20	binds
